The values that follow come from PMC8005358 (Science translational medicine, 2019).

One may read the stoichiometry N as a count of units in the complex or per binding partner.

This data set deals with the molecule itself. Briefly: SDS-PAGE in reducing and non-reducing conditions.

B1: recombinant human erythroferrone variant with a VPFQ insertion (ERFE^VPFQ) (natural protein, UniProt Q4G0M1 29-354, looked up)
chain: SPEPGAPSRSRARREPPPGNELPRGPGESRAGPAARPPEPTAERAHSVDPRDAWMLFVRQSDKGVNGKKRSRGKAKKLKVPFQFGLPGPPGPPGPQGPPGPIIPPEALLKEFQLLLKGAVRQRERAEPEPCTCGPAGPVAASLAPVSATAGEDDDDVVGDVLALLAAPLAPGPRAPRVEAAFLCRLRRDALVERRALHELGVYYLPDAEGAFRRGPGLNLTSGQYRAPVAGFYALAATLHVALGEPPRRGPPRPRDHLRLLICIQSRCQRNASLEAIMGLESSSELFTISVNGVLYLQMGQWTSVFLDNASGCSLTVRSGSHFSAVLLGV
B1: the “stoichiometry N” value was 3.

B2: recombinant human erythroferrone, wild type (ERFE^WT) (natural protein, UniProt Q4G0M1 29-354, looked up)
chain: SPEPGAPSRSRARREPPPGNELPRGPGESRAGPAARPPEPTAERAHSVDPRDAWMLFVRQSDKGVNGKKRSRGKAKKLKFGLPGPPGPPGPQGPPGPIIPPEALLKEFQLLLKGAVRQRERAEPEPCTCGPAGPVAASLAPVSATAGEDDDDVVGDVLALLAAPLAPGPRAPRVEAAFLCRLRRDALVERRALHELGVYYLPDAEGAFRRGPGLNLTSGQYRAPVAGFYALAATLHVALGEPPRRGPPRPRDHLRLLICIQSRCQRNASLEAIMGLESSSELFTISVNGVLYLQMGQWTSVFLDNASGCSLTVRSGSHFSAVLLGV
For the protein B2, the “stoichiometry N” value is 3.
